Source: PMC10658506

Target: human gp130-Fc (UniProt P40189)
Assay: flow cytometry on yeast-displayed IL-11
Conditions: 100 nM IL-11R added, read off a plot
[1] = 100 nM gp130-Fc, parent: est. 35000
[2] = 1000 nM gp130-Fc, parent: est. 40000

Chain of human gp130-Fc (P40189 whole entry, looked up, tested part not stated): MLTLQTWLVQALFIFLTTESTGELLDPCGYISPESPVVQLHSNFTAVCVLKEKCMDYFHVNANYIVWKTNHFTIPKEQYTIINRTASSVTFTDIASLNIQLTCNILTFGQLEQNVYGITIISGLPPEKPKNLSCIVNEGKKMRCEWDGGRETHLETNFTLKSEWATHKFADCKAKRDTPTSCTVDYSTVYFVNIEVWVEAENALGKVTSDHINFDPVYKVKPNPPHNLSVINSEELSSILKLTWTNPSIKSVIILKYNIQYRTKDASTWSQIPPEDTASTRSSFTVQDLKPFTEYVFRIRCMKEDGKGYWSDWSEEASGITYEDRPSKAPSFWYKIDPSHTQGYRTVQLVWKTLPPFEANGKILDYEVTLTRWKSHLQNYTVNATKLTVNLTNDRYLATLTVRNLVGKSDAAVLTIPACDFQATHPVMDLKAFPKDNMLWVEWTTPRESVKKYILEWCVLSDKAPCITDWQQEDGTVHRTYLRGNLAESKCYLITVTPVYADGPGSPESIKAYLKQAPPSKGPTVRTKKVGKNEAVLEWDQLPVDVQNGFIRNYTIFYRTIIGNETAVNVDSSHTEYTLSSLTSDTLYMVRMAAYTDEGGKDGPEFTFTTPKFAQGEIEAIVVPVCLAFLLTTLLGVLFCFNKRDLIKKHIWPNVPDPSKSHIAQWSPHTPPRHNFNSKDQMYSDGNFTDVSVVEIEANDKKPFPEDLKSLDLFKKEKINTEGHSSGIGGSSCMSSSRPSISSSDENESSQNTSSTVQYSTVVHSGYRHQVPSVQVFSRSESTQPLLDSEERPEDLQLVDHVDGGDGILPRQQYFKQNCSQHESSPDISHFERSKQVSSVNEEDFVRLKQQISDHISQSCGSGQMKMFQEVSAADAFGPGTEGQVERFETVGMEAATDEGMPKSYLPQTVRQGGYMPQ

Substance | response (Normalized Fluorescence) [1] | response (Normalized Fluorescence) [2] | response (Normalized Fluorescence) (10 nM gp130-Fc, parent: est. 28000)
yeast-displayed IL-11 GIPR precomplexed with soluble human IL-11R (from UniProt Q14626) L24R; W147A | 1900 | 4500 | –
yeast-displayed IL-11 GIPR precomplexed with soluble human IL-11R (from UniProt Q14626) W147A | 17000 | 26000 | 4900
